{"source": "patent US20140274782A1", "about": "(Stanford University, published 2014)", "experiment_in_all_cases": "ProtoArray, GST-treated control array;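 also: human protein microarray (about 9500 recombinant proteins) incubated overnight with GST alone plus SAM cofactor as the negative control for G9a SET domain methylation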", "key": {"[1]": {"target": "HS3ST1-heparan sulfate (glucosamine) 3-O-sulfotransferase 1 (HS3ST1) (human, UniProt O14792 21-307, limits assumed)", "sequence (O14792 21-307 limits assumed)": "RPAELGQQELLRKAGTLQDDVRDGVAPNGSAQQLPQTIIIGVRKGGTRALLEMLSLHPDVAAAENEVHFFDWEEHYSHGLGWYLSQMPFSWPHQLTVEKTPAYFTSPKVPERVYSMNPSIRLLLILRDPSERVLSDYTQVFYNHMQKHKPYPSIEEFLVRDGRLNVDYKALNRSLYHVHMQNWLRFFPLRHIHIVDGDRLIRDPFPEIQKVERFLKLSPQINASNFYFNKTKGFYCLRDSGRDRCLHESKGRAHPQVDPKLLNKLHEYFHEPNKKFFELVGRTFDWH"}, "[2]": {"target": "T1, SH3YL1-SH3 domain containing, Ysc84-like 1 (S. cerevisiae), mRNA (cDNA clone MGC:12275 IMAGE:3996120), … (human, UniProt Q96HL8 1-342, limits assumed)", "T1 sequence (looked up)": "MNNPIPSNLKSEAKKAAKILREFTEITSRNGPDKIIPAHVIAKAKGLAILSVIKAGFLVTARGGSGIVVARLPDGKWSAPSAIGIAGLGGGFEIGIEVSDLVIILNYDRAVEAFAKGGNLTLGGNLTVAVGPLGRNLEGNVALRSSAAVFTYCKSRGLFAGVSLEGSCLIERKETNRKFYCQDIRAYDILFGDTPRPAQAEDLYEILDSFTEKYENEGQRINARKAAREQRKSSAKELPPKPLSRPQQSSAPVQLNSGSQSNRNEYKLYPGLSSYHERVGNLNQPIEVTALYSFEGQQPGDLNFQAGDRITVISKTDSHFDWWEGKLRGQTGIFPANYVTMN"}, "[3]": {"target": "T2, CTXN1-cortexin 1 (CTXN1) (human, UniProt P60606 1-82)", "T2 sequence (looked up)": "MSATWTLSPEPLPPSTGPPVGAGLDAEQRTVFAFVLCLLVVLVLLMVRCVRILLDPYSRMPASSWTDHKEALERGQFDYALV"}, "[4]": {"target": "T3, CCL24-C-C motif chemokine 24 (human, UniProt O00175 27-119, limits assumed)", "T3 sequence (looked up)": "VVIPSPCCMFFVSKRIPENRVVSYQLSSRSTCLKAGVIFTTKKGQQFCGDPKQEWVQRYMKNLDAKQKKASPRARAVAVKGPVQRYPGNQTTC"}, "[5]": {"target": "T4, LYPLAL1-lysophospholipase-like 1 (LYPLAL1) (human, UniProt Q5VWZ2 1-237)", "T4 sequence (looked up)": "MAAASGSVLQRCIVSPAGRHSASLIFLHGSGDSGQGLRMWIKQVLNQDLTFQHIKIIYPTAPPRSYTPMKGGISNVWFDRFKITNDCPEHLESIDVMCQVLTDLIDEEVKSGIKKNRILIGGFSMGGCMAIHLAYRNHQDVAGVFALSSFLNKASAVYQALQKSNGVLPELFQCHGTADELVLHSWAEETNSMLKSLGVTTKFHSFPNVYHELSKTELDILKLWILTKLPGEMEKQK"}, "[6]": {"target": "T5, GPR108-G protein-coupled receptor 108 (GPR108) (human, UniProt Q9NPR9 33-543, limits assumed)", "T5 sequence (looked up)": "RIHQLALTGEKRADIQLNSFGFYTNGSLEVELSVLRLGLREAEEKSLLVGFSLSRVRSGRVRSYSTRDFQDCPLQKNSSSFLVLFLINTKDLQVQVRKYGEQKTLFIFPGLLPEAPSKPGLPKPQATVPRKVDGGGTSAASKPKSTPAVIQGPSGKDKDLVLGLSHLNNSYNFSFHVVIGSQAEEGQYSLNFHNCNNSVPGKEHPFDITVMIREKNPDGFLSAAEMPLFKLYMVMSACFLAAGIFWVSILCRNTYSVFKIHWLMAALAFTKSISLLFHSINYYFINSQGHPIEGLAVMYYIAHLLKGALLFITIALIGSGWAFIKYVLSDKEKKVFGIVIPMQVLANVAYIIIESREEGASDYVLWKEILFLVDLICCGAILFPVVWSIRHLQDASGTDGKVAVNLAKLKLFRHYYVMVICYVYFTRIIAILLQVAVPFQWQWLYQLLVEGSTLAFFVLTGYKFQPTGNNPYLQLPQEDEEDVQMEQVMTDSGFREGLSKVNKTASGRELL"}, "[7]": {"target": "T6, GGPS1-Geranylgeranyl pyrophosphate synthetase (human, UniProt O95749 1-300)", "T6 sequence (looked up)": "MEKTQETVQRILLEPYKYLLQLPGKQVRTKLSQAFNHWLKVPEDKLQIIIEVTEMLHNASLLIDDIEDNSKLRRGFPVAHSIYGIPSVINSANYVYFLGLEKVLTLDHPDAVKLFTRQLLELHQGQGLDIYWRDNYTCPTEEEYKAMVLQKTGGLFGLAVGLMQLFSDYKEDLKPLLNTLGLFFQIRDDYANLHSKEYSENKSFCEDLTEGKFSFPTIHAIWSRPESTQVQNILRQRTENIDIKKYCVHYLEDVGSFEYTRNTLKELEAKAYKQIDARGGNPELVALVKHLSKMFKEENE"}, "[8]": {"target": "T7, C2orf43-chromosome 2 open reading frame 43 (C2orf43) (human, UniProt Q9H6V9 1-325, limits assumed)", "T7 sequence (looked up)": "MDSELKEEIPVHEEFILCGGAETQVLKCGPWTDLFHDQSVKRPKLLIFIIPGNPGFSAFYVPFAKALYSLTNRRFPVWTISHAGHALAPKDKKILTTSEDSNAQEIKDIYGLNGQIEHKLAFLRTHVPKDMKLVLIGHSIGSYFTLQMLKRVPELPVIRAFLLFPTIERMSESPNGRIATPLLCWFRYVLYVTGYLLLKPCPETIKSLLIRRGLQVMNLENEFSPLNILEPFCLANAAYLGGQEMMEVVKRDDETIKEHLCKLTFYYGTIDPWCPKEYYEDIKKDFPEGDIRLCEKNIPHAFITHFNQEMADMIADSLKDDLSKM"}, "[9]": {"target": "T8, SEC22B-Vesicle-trafficking protein SEC22b (human, UniProt O75396 1-215)", "T8 sequence (looked up)": "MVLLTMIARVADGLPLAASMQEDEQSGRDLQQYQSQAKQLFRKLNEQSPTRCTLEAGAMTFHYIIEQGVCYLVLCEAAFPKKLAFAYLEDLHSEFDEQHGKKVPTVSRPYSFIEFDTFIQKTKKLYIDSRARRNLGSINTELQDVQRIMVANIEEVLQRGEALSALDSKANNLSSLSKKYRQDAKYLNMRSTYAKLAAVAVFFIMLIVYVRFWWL"}}, "data": [{"binder": "3× Flag-3×MBT (designed binder, also called Flag-tagged 3×MBT; 3xFlag-3xMBT; not shown: made by PreScission cleavage of GST-3× Flag-3×MBT) EEWSSSQPATGEKKECWSWESYLEEQKAITAPVSLFQDSQAVTHNKNGFKLGMKLEGIDPQHPSMYFILTVAEVCGYRLRLHFDGYSECHDFWVNANSPDIHPAGWFEKTGHKLQPPKGYKEEEFSWSQYLRSTRAQAAPKHLFVSQSHSPPPLGFQVGMKLEAVDRMNPSLVCVASVTDVVDSRFLVHFDNWDDTYDYWCDPSSPYIHPVGWCQKQGKPLTPPQDYPDPDNFCWEKYLEETGASAVPTWAFKVRPPHSFLVNMKLEAVDRRNPALIRVASVEDVEDHRIKIHFDGWSHGYDFWIDADHPDIHPAGWCSKTGHPLQPPLGPREPSSASPGG", "values": [{"measurement": "GST Average SNR", "setting": "[1]", "value": 0.092}, {"measurement": "GST Average SNR", "setting": "[2]", "value": 0.26}, {"measurement": "GST Average SNR", "setting": "[3]", "value": 1}, {"measurement": "GST Average SNR", "setting": "[4]", "value": 0.109}, {"measurement": "GST Average SNR", "setting": "[5]", "value": 0.066}, {"measurement": "GST Average SNR", "setting": "[6]", "value": -0.788}, {"measurement": "GST Average SNR", "setting": "[7]", "value": -0.483}, {"measurement": "GST Average SNR", "setting": "[8]", "value": -0.147}, {"measurement": "GST Average SNR", "setting": "[9]", "value": -0.797}]}]}
